Assay results published in patent US20160361384A1, “COSMETIC USE OF DERMICIDIN, OR ANALOGUES OR FRAGMENTS THEREOF, FOR THE PREVENTION AND/OR TREATMENT AND DIAGNOSIS OF OILY SKIN AND AESTHETIC SKIN DISORDERS ASSOCIATED THEREWITH” (L'OREAL, priority 2013, published 2016).
Ends that are not written are not given here.

System: P. acnes ATCC 6919
Format: cell-based, Propionibacterium acnes
Conditions: for MIC in μg/ml P. acnes: P. acnes ATCC 6919, 48 h incubation, optical density at 620 nm, concentration range 5 to 100 μg/ml, triplicate
Experimental: A micromethod was developed in a microplate.
The test principle is based on bringing decreasing concentrations of antimicrobial peptide (DCD-1L) into contact with an identical inoculum of P. acnes in a culture medium conducive to the growth of P. acnes. After incubation of the microplate for 48 h with the P. acnes strain, the optical density of the sample (620 nm) is measured and the results are expressed as percentage growth calculated relative to a growth control without antimicrobial peptide (negative control).
In addition, the inoculum is also brought into contact with triclosan in order to have a positive control.
The minimum inhibitory concentration or MIC is the lowest concentration of antibiotic that is sufficient to inhibit, in the laboratory, i.e. in vitro, the growth of a bacterial strain (bacterial colony).
The concentration range chosen ranged from 5 to 100 μg/ml.
Each concentration was tested in triplicate.
The inhibitory activity of the peptides was evaluated on the following microorganism: • P. acnes ATCC 6919 (Gram+bacterium)

SSLLEKGLDGAKKAVGGLGKLGKDAVEDLESVGKGAVHDVKDVLDSVL [Dermcidin (DCD1L)]
MIC in μg/ml P. acnes: <5 µg/mL
growth of P. acnes (in the presence of a low concentration of the peptide): greatly inhibited

B1: Recombinant human S100A7: recombinant human S100A7, Interchim (Protera), folding verified by NMR, batch EN00510-23/24/25 (protein, UniProt P31151 2-101, looked up)
Protein S100-A7: SNTQAERSIIGMIDMFHKYTRRDDKIEKPSLLTMMKENFPNFLSACDKKGTNYLADVFEKKDKNEDKKIDFSEFLSLLGDIATDYHKQSHGAAPCSGGSQ
MIC in μg/ml P. acnes: >100 µg/mL

B2: Lacritin: antimicrobial peptide Lacritin, synthesized by hybrogenics Ref: Hgx 2238v1 (peptide, UniProt Q9GZZ8 20-138, looked up)
Extracellular glycoprotein …: EDASSDSTGADPAQEAGTSKPNEEISGPAEPASPPETTTTAQETSAAAVQGTAKVTSSRQELNPLKSIVEKSILLTEQALAKAGKGMHGGVPGGKQFIENGSEFAQKLLKKFSLLKPWA
MIC in μg/ml P. acnes: 100 µg/mL

B3: RNASE 7: antimicrobial peptide RNASE 7, Human Plv extraction (heel horn) (protein, UniProt Q9H1E1 29-156, looked up)
Ribonuclease 7: KPKGMTSSQWFKIQHMQPSPQACNSAMKNINKHTKRCKDLNTFLHEPFSSVAATCQTPKIACKNGDKNCHQSHGAVSLTMCKLTSGKHPNCRYKEKRQNKSYVVACKPPQKKDSQQFHLVPVHLDRVL
MIC in μg/ml P. acnes: >100 µg/mL
